Where “and” joins values, the source holds several entries; their conditions need not be identical. Equal values may be shown once.
Conditions: Equus caballus, pH 5, 15 °C, Abs, CD, Fluorescence, Sodium acetate 0.1 M, reversible: Yes
[1] = GdnHCl, transition: 3, structure 1AKK

Chain of Cytochrome c H34N, P00004 (P00004 whole entry H34N): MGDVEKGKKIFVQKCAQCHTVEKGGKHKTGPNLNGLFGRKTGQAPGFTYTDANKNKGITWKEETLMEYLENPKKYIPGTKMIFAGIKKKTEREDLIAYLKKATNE
Chain of Cytochrome c wild type, P00004 (P00004 whole entry): as the sequence (P00004 whole entry H34N) above, with N34H counted along it

Substance	denaturant m value (GdnHCl, structure 1AKK) [kcal/mol/M]	unfolding free energy (GdnHCl, structure 1AKK) [kJ/mol]	denaturant m value [1]	denaturant midpoint (higher = more stable) [1]	unfolding free energy [1]	denaturant m value (Urea, structure 1AKK) [kcal/mol/M]	unfolding free energy (Urea, structure 1AKK) [kJ/mol]	denaturant midpoint (higher = more stable) (Urea, transition: 3, structure 1AKK)	denaturant m value (GdnHCl) [kcal/mol/M]	unfolding free energy (GdnHCl) [kJ/mol]	denaturant m value (GdnHCl, transition: 3)	denaturant midpoint (higher = more stable) (GdnHCl, transition: 3)
Cytochrome c H34N, P00004	4.8	45.2	1.7 kcal/mol/M and 3.08 kcal/mol/M	2.07 M and 2.34 M	14.6 kJ/mol and 30.5 kJ/mol	2.43	43.9	4 M and 4.81 M	–	–	–	–
Cytochrome c wild type, P00004	–	–	–	–	–	–	–	–	4.39	41	1.34 kcal/mol/M and 3.05 kcal/mol/M	1.5 M and 2.55 M

From FireProtDB (doi:10.1016/j.jmb.2006.01.055)
